{"source": "paper PMC4358367", "about": "“Structural basis of diverse membrane target recognitions by ankyrins” (eLife, 2014)", "key": {"[1]": {"molecular_target": "T1, AnkG ANK repeats R1–6 (truncation of AnkG_repeats with C-terminal capping sequence) (rat | human)", "T1 chain": "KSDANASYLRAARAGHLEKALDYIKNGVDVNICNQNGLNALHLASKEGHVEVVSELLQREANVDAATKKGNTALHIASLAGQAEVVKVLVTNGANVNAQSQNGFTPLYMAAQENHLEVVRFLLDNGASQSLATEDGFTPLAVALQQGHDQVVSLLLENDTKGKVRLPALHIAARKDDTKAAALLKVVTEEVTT", "experiment": "ITC"}, "AnkB R1-14": {"molecular_target": "T2, AnkB R1-14 (Homo sapiens)", "T2 chain": "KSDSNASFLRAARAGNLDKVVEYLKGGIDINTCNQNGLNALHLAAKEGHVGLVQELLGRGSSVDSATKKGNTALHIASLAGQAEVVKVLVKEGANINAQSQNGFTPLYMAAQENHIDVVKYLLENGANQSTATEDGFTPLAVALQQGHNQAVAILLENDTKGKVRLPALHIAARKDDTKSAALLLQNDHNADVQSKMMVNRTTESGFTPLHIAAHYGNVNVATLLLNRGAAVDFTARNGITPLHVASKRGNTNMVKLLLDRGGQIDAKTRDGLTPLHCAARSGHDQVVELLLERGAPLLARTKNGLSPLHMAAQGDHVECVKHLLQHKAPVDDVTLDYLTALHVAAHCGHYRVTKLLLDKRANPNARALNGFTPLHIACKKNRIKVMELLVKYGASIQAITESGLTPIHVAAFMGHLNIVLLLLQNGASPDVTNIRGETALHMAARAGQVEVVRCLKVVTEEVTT", "experiment": "ITC"}, "[2]": {"molecular_target": "T3, AnkB_repeats_R1–9 (first nine ANK repeats of AnkB, residues 28–318, followed by the capping sequence 814–822) (human, UniProt Q01484 28-318; Q01484 814-822)", "T3 chain": "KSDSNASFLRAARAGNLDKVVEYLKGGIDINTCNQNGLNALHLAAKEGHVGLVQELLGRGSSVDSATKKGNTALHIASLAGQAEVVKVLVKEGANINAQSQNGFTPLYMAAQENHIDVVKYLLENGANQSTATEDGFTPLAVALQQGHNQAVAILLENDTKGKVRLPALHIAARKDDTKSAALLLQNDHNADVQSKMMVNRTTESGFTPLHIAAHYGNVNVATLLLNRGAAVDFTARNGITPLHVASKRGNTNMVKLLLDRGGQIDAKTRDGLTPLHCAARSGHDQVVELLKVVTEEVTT", "experiment": "ITC"}, "[3]": {"molecular_target": "T4, AnkG_repeats (24 ANK repeats of rat 190 kDa ankyrin-G, residues 38–855) (rat, UniProt O70511 38-855)", "T4 chain": "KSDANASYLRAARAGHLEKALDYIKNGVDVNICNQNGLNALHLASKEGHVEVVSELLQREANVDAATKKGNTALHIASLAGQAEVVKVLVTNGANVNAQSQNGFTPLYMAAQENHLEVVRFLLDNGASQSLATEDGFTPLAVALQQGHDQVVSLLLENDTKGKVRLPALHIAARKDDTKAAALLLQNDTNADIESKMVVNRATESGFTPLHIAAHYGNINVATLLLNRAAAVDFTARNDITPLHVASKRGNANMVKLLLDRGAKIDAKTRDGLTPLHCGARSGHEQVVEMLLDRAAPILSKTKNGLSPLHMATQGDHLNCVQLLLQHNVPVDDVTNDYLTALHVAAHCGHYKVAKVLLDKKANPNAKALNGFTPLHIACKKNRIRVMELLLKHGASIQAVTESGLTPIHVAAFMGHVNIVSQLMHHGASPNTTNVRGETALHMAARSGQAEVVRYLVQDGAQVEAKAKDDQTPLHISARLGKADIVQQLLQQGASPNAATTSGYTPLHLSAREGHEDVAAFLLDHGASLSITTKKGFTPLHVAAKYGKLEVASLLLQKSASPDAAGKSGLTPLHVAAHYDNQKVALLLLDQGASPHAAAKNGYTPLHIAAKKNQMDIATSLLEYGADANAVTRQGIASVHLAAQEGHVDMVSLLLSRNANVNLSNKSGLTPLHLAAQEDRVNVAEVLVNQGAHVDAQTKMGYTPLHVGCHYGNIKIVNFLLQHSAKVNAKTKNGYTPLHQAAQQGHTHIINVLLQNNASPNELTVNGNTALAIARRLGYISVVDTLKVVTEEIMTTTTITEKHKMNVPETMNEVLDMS", "experiment": "ITC"}, "[4]": {"molecular_target": "T4, AnkG_repeats (24 ANK repeats of rat 190 …)", "experiment": "ITC"}, "[5]": {"molecular_target": "T5, AnkB_repeats (24 ANK repeats of human 220 kDa ankyrin-B, residues 28–873) (human, UniProt Q01484 28-873)", "T5 construct": "ankyrin-B (AnkB), human, 220 kDa isoform used as template, ANK repeats, residues 28-873; source: E. coli BL21 (DE3), purified", "T5 sequence (looked up)": "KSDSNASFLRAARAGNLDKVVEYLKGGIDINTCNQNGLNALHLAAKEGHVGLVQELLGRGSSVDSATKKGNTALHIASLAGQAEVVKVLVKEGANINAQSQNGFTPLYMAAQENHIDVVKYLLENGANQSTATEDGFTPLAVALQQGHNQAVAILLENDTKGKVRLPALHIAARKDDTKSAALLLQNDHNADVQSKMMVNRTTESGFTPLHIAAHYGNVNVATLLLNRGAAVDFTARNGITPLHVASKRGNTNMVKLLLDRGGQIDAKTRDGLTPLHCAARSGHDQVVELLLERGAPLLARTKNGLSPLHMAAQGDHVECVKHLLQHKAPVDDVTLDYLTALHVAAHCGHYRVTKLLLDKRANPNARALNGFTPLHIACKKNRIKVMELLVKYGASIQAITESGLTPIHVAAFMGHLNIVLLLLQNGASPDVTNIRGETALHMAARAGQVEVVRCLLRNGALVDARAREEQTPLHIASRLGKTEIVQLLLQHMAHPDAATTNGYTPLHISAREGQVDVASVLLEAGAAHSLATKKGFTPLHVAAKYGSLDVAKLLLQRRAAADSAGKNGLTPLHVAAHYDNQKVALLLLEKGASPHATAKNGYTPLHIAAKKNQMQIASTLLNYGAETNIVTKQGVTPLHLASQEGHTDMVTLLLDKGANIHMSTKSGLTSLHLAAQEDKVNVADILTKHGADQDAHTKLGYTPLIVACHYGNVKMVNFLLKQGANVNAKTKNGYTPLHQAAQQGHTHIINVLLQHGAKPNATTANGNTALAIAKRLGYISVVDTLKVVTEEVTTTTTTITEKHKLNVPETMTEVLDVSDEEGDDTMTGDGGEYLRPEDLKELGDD", "experiment": "ITC; VP-ITC at 25°C; 50 mM Tris pH 7.5, 100 mM NaCl, 1 mM EDTA, 1 mM DTT; binding partner (AS, Nav1.2 ABD proteins, neurofascin ABD; 200–300 µM) in the syringe, ANK repeats (20–30 µM) in the cell; one-site binding model", "conditions": "both partners purified"}, "[6]": {"molecular_target": "T6, AnkR_repeats (24 ANK repeats of ankyrin-R, residues 42–853) (mouse, UniProt Q02357-6 42-853)", "T6 construct": "ankyrin-R (AnkR), mouse, ANK repeats, residues 42-853, PCR amplified from a mouse muscle cDNA library; The thioredoxin-His6 tag was removed with HRV 3C protease 'when needed'; also called AnkR ANK repeats; source: E. coli BL21 (DE3), purified", "T6 sequence (looked up)": "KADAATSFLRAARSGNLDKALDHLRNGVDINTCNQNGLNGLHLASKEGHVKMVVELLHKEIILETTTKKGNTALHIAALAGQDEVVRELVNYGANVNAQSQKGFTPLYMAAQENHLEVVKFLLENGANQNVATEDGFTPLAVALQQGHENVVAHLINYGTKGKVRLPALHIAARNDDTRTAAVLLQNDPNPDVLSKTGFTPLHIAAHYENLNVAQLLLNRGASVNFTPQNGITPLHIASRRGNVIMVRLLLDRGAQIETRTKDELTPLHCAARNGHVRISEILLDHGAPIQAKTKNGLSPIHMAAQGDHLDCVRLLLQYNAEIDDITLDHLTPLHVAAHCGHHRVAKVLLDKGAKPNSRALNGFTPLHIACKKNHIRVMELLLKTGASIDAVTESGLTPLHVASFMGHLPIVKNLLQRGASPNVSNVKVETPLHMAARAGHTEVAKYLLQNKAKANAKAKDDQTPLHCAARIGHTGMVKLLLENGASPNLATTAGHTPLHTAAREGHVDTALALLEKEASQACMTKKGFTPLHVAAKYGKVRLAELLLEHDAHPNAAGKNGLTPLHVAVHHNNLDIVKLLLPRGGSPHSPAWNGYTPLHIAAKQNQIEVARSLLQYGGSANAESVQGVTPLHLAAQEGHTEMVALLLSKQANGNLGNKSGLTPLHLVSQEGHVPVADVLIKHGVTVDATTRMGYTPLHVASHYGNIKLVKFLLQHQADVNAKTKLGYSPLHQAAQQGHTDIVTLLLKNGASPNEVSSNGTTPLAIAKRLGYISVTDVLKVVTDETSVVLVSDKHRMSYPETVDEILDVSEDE", "experiment": "ITC; VP-ITC at 25°C; 50 mM Tris pH 7.5, 100 mM NaCl, 1 mM EDTA, 1 mM DTT; binding partner (AS, Nav1.2 ABD proteins, neurofascin ABD; 200–300 µM) in the syringe, ANK repeats (20–30 µM) in the cell; one-site binding model", "conditions": "both partners purified"}, "[7]": {"molecular_target": "T7, AnkG_repeats (24 ANK repeats of rat 190 kDa ankyrin-G, residues 38–855) (rat, UniProt O70511 38-855)", "T7 construct": "ankyrin-G (AnkG), rat, 190 kDa isoform used as template, ANK repeats, residues 38-855; also called AnkG ANK repeats; wild-type ANK repeats; source: E. coli BL21 (DE3), purified", "T7 sequence (looked up)": "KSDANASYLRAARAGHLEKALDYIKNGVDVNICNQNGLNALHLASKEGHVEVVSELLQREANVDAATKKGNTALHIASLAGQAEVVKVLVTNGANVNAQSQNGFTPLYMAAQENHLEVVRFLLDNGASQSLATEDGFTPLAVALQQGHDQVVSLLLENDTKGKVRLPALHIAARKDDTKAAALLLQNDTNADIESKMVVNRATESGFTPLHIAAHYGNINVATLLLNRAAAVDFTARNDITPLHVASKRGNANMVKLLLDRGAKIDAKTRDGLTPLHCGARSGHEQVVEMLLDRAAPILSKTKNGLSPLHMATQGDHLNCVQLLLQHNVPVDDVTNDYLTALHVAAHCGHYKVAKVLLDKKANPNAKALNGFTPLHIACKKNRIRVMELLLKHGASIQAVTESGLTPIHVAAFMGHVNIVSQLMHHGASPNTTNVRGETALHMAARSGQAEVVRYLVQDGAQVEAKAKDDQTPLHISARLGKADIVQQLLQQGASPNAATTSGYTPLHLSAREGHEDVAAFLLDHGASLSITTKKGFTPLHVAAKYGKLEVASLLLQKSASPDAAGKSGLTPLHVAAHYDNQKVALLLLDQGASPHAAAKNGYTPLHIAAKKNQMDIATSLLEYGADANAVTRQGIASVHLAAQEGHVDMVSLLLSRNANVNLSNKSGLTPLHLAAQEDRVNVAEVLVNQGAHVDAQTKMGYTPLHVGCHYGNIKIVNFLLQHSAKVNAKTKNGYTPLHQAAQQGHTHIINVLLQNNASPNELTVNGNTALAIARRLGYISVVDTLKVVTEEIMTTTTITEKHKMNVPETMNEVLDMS", "experiment": "ITC; VP-ITC at 25°C; 50 mM Tris pH 7.5, 100 mM NaCl, 1 mM EDTA, 1 mM DTT; binding partner (AS, Nav1.2 ABD proteins, neurofascin ABD; 200–300 µM) in the syringe, ANK repeats (20–30 µM) in the cell; one-site binding model", "conditions": "both partners purified"}}, "data": [{"binder": "Nav1.2_ABD (ankyrin binding domain of Nav1.2, residues 1035–1129) (domain or fragment) KALDEIKPLEDLNNKKDSCISNHTTIEIGKDLNYLKDGNGTTSGIGSSVEKYVVDESDYMSFINNPSLTVTVPIAVGESDFENLNTEEFSSESDM", "values": [{"measurement": "Kd", "setting": "[1]", "result": 2300, "unit": "nM"}, {"measurement": "Kd", "setting": "AnkB R1-14", "result": 290, "unit": "nM"}, {"measurement": "Kd", "setting": "[2]", "result": 3500, "unit": "nM"}]}, {"binder": "E1112K-Nav1.2 (ABD with the charge reversal mutation E1112K) (domain or fragment) KALDEIKPLEDLNNKKDSCISNHTTIEIGKDLNYLKDGNGTTSGIGSSVEKYVVDESDYMSFINNPSLTVTVPIAVGKSDFENLNTEEFSSESDM", "values": [{"measurement": "Kd", "setting": "[3]", "result": "> 50000", "unit": "nM"}]}, {"binder": "CADQYWNEVTVIDAIPLAATEHDTMLEMSDMQVWSAGLTPSLVTAEDS (domain or fragment, mouse, UniProt Q02357-6 1577-1624, looked up, Free AS in ITC; source: E. coli BL21 (DE3), purified)", "note": "[AnkR_AS (48-residue auto-inhibitory segment of AnkR, residues 1577–1624)]", "values": [{"measurement": "Kd", "setting": "[4]", "result": 460, "unit": "nM"}, {"measurement": "Kd", "setting": "[5]", "result": 400, "unit": "nM"}]}, {"binder": "AnkR entire C-terminal regulatory domain (residues 1529–1907) (domain or fragment, mouse, UniProt Q02357-6 1529-1907, looked up, also called full length AnkR C-terminal domain; C-terminal tail of AnkR; source: E. coli BL21 (DE3), purified) RQSRNLKPERRHGDREYSLSPSQVNGYSSLQDELLSPASLQYALPSPLCADQYWNEVTVIDAIPLAATEHDTMLEMSDMQVWSAGLTPSLVTAEDSSLECSKAEDSDAIPEWKLEGAHSEDTQGPELGSQDLVEDDTVDSDATNGLADLLGQEEGQRSEKKRQEVSGTEQDTETEVSLVSGQQRVHARITDSPSVRQVLDRSQARTLDWDKQGSTAVHPQEATQSSWQEEVTQGPHSFQRRITTIQGPEPGALQEYEQVLVSTREHVQRGPPETGSPKAGKEPSLWAPESAFSQEVQGDELQNIPGEQVTEEQFTDEQGNIVTKKIIRKVVRQVDSSGAIDTQQHEEVELRGSGLQPDLIEGRKGAQIVKRASLKRGKQ", "values": [{"measurement": "Kd", "setting": "[6]", "result": "~1000", "unit": "nM"}]}, {"binder": "Nav1.2 ABD-N (N-terminal 68-residue fragment of loop 2, residues 1035–1102) (domain or fragment) KALDEIKPLEDLNNKKDSCISNHTTIEIGKDLNYLKDGNGTTSGIGSSVEKYVVDESDYMSFINNPSL", "values": [{"measurement": "Kd", "setting": "[7]", "result": "~8000", "unit": "nM"}]}]}
